Assay: yeast display, Sf9 membrane polyspecificity reagent, FACS + sequencing; frameworks hold sequencing errors
Procedure, shortened: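 Genes from sorted yeast were amplified by colony PCR, read by MiSeq 2 × 250 sequencing and filtered on CDR length. These cells carried a synthetic nanobody library in Saccharomyces cerevisiae BJ5465 and were sorted by FACS into low and high (top ~1%) gates on anti-HA and streptavidin fluorescence. Polyreactivity is labelled according to the gate of origin.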

Row | Sequence | polyreactivity (PSR sort gate)
1 | QVQLVESGGGLVQAGGSLRLSCAASGITFPYYALGWYRQAPGKERELVARISRGGRTNYADSVKGRFTISRDNAKNTVYLQMNSLKPEDTAVYYCNAGYTYYKYGYWGQGTQVTVSS | high polyreactivity
2 | QVQLVESGGGLVQAGGSLRLSCAASGITFPYYAMGWSRQAPGKERELVAAISSSGGSSYYADSVKGRFTISRDNAKNTVYLQMNSLKPEDTAVYYCATRNTRFHLDYWGQGTQVTVSS | high polyreactivity
3 | QVQLVESGGGLVQAGGSLRLSCAASGITFPYYAMGWYRQAPGKERELVAAISSSGGSTYYADSVKGRFTISRDNAKNTVYLQMNSLKPEDTAVYYCAAQRYINYDYWGQGTQVTVSS | high polyreactivity
4 | QVQLVESGGGLVQAGGSLRLSCAASGITFPYYAMGWYRQAPGKERELVAAITRSGSSTYYADSVKGRFTISRDNAKNTVYLQMNSLKPEDTAVYYCAAKRGAGEDYWGQGTQVTVSS | high polyreactivity
5 | QVQLVESGGGLVQAGGSLRLSCAASGITFPYYTMGWYRQAPGKERELVATIRNGGSTYYADSVKGRFTISRDNAKNTVYLQMNSMKPEDTAVYYCAAVPLWDYKFFYYLLYDYWGQGTQVTVSS | low polyreactivity
6 | QVQLVESGGGLVQAGGSLRLSCAASGITFQANAMGWYRQAPGKERELVAAISSSDGSTYYADSVKGRFTISRDNAKNTVYVQMNSLKPEDTAVYYCAADGVVYGWPEYEYWGQGTQVTVSS | low polyreactivity
7 | QVQLVESGGGLVQAGGSLRLSCAASGITFQDNAIGSNRQAPGKERELVAAISTGSTNYADSVKGRFTISRDNAKNTVYLQMKSLKPDDTAVYYCAALGQYQTVYSDGYDYYYWGQGTQVTVSS | low polyreactivity
8 | QVQLVESGGGLVQAGGSLRLSCAASGITFQDYAMGWYRQAPGKERELVAAISKSGGSTYYADSVKGRFTISRDNAKNTVYLQMNSLKPEDTAVYYCAAYAQKRYYWGQGTQVTVSS | high polyreactivity
9 | QVQLVESGGGLVQAGGSLRLSCAASGITFQNYAMGWYRQAPGKERELVAAITRSGGRTYYADSVKGRFTISRDNAMNTVYLQMNSLKPEDTAVYYCAVYGIGRPYWYDYWGQGTQVTVSS | high polyreactivity
10 | QVQLVESGGGLVQAGGSLRLSCAASGITFQNYAMGWYRQAPGKERELVAGISYSGGSTYYADSVKGRFTISRDHAKNTVFLLMNSLKPEDTAVYDCAATRWYSYRRYYYWGQGTQVTVSS | high polyreactivity
11 | QVQLVESGGGLVQAGGSLRLSCAASGITFQPYAMGWYRQAPGKEREFVAVISFRGGSTYYADSVKGRFTISRDNAKNTVYLQMNSLKPEDTAVYYCAALEYHGHTGGRVYYWVQGTQVTVSS | high polyreactivity
12 | QVQLVESGGGLVQAGGSLRLSCAASGITFQRYAMGWYRQAPGKERELVAAISTNGGTTYYADSVKGRFTISRDNAKNTVYLQMNSLKPEDTAVYYCNAESGYVYYIRYNYWGQGTQVTVSS | high polyreactivity
13 | QVQLVESGGGLVQAGGSLRLSCAASGITFRFYAMGWYRQAPGKERELVAAITSSGGSTYYADSVKGRFTISRDNAKNTVYLQMNSLKPEDTAVYYCAASYGAPYGYKRYYYWGQGTQVTVSS | high polyreactivity
14 | QVQLVESGGGLVQAGGSLRLSCAASGITFRGNVMGWYRQAPGKERELVAAISGSSGRTYYADSVKGRFTISRDNAKNTVYLQMNSLKPEDTAVYYCAAYYGTKYDYWGQGTQVTVSS | high polyreactivity
15 | QVQLVESGGGLVQAGGSLRLSCAASGITFRGYAMGWYRQAPGKERELVAAITWSGGSTYYADSVKGRFTISRDIAKNTVYLQMKSLKPEDTAVYYCAARGRRSFEYWGQGTHVTVSS | high polyreactivity
16 | QVQLVESGGGLVQAGGSLRLSCAASGITFRHYDMGWYRQAPGKERELVAAITSRGGSTYYADSVKGRFTISRDNAKNTVYLQMNSLKPQDTAVYYCNKRLYYQRWPAAAREYWGQGTQVTVSS | high polyreactivity
17 | QVQLVESGGGLVQAGGSLRLSCAASGITFRKYAMGWYRQAPGKERELVAGIRRGGSTYYADSVKGRFTISRDNAKNTVYLQMNSLKPEDTAVYYCATRARYKRIRYDYWGQGTQVTVSS | high polyreactivity
18 | QVQLVESGGGLVQAGGSLRLSCAASGITFRNYAMGWYRPAPGKERELVADITTGGSTYADSVKGRFTISRDNAKNTVYLQMISLKPEDTAVYYCAARYFSYYILRRIYPVREDYWGQGTQVTVSS | low polyreactivity
19 | QVQLVESGGGLVQAGGSLRLSCAASGITFRPYTMGWYRQAPGKERELVATINWSGGSTYYADSVKGRFTISRDNAKNTVYLQMNSLKPEDTAVYYCAVTWYVRRWYGYWGQGTQVTVSS | high polyreactivity
20 | QVQLVESGGGLVQAGGSLRLSCAASGITFRRNAMGWYRQAPGKERELVAGITRGGTTKYADSVKGRFTISRDNAKNTVYLQMNSLKPEDTAVYYCNAVTRRHKYYYWGQGTQVTVSS | high polyreactivity
21 | QVQLVESGGGLVQAGGSLRLSCAASGITFRSYAMGWYRQAPGKERELVATISWSGGITYYADSVKGRFTISRDNAKNTVYLQMNSLKPEDTAVYYCAKASQSWGRDDYYYWGQGTQVTVSS | low polyreactivity
22 | QVQLVESGGGLVQAGGSLRLSCAASGITFRTNTMGWSRQAPGKERELVAAITWDGGSTYYADSVKGRFTISRDNAKNTVYLQMNSLKPEDTAVYYCAARLSYLYGLYPYYYWGQGTQVTVSS | high polyreactivity

Row | Sequence | polyreactivity (PSR sort gate)
23 | QVQLVESGGGLVQAGGSLRLSCAASGITFRTYAMGWYRQAPGKERELVAAISSRGGSTYYADSVKGRFTISRDNAKNTVYLQMNSLKPEDTAVYYCNARDVRYYEYGYWGQGTQVTVSS | high polyreactivity
24 | QVQLVESGGGLVQAGGSLRLSCAASGITFRYNAMGWYRQAPGKERELVAAITFSGGSTYYADSVKGRFTISRDNAKNTVDLQMNSLKPEDTAVYYCAKLGSTSSRGNYDYWGQGTQVTVSS | low polyreactivity
25 | QVQLVESGGGLVQAGGSLRLSCAASGITFRYYAMGRYRQAPGKERELVAAITRSGSTTYADSVKGRFTISRDNAKNTVYLQMNSLKPVDTAVYYCAVDYYYLTGGVDYWGQGTQVTVSS | low polyreactivity
26 | QVQLVESGGGLVQAGGSLRLSCAASGITFRYYAMGWSRQAPGKERELVADITRSGGTTYYADSVKGRFTISRDNAKNTVYLQMNSLKPEDSAVYYCAVDLNWWGWGLLQYDYWGQGTQVTVSS | high polyreactivity
27 | QVQLVESGGGLVQAGGSLRLSCAASGITFRYYAMGWYRPAPRKERELVAVISTSGGSTYYADSVKGRFTISRDNAKNTVYLQMNSLKPEDTAVYYCAARYSRSRRYRMDYWGQGTQVTVSS | high polyreactivity
28 | QVQLVESGGGLVQAGGSLRLSCAASGITFRYYAMGWYRQAPGKERELVAAISSGGGTYYADSVKGRFTISRDNAKNTVYLQMNSLKPEDTAVYYCNVLRLYPSMDYWGQGTQVTVSS | high polyreactivity
29 | QVQLVESGGGLVQAGGSLRLSCAASGITFSFYAMGWYRQAPGKERELVAGITRSGGDTYYADSVKGRFTISRDNAKNTVYLQMNSLKPEDTAVYYCAAAWFFYRRQYTFFAGRMDYWGQGTQVTVSS | high polyreactivity
30 | QVQLVESGGGLVQAGGSLRLSCAASGITFSGNAMGWYRQAPGKERELVAAISRNGGRTYYADSVKGRFTISRDNAKNTVYLQMNSLKPEDTAVYYCAKDAYGYSRVSAWYYTYDYWGQGTQVTVSS | high polyreactivity
31 | QVQLVESGGGLVQAGGSLRLSCAASGITFSGNAMGWYRQAPGKERELVATISQSGGSTYYADSVKGRFTISRDNAKNTVYLQMNSLKPEDTAVYYCNVNLQGRYSDKYDYWGQGTQVTVSS | high polyreactivity
32 | QVQLVESGGGLVQAGGSLRLSCAASGITFSGYAMGWYRQAPGKERDFVAGISYSGGSTYYADSVKGRFTISRDNAKNTVYLQMNSLKPEDTAVYYCAAYFGHYWRYYYWGQGTQVTVSS | high polyreactivity
33 | QVQLVESGGGLVQAGGSLRLSCAASGITFSKYAMGWYRQAPGKERELVAAITRSGGSTYYADSVKGRFTISRDNAKNTVYLQMNSLKPEDTAVYYCNARGYVTGGDGGYGYWGQGTQVTVSS | high polyreactivity
34 | QVQLVESGGGLVQAGGSLRLSCAASGITFSLYAMGWYRQAPGKERELVAAITRSGGSTYYADSVKGRFTISRDNAKNTVYLQMNSLKPEDTAVYYCAAKRPGVRRYYYWGQGTQVTVSS | high polyreactivity
35 | QVQLVESGGGLVQAGGSLRLSCAASGITFSLYAMGWYRQAPGKERELVAAITRSGGSTYYADSVKGRFTISRDNAKNTVYLQMNSLKPEDTAVYYCAAQRPGVRRYYYWGQGTQVTVSS | high polyreactivity
36 | QVQLVESGGGLVQAGGSLRLSCAASGITFSNYAMGWYRQAPGKERELVAAITLSGGRTYYADSVKGRFTISRDNAKNTVYLQMNSLKPEDTAVYYCAAGRTRRPLGGTTKYYYWGQGTQVTVSS | high polyreactivity
37 | QVQLVESGGGLVQAGGSLRLSCAASGITFSPYTMGWYRQAPGKERELVAAINDGAITYYADSVKGRFTISRDNAKNTVYLQMNSLKPEDTAVFYCAAAAWGTDPFSTDYATYDYWGQVTQVTVSS | low polyreactivity
38 | QVQLVESGGGLVQAGGSLRLSCAASGITFSQYAMGWYTQAPGKERELVASISEGDGTNYADSVKGRFTISRDNAKNTVYLQMNSLKPEDTAVYYCAAPRPYYWSRRYYRAFDYWGQGTQVTVSS | high polyreactivity
39 | QVQLVESGGGLVQAGGSLRLSCAASGITFSRYAMGWYRQAPGKERELVAAITWDGGRTYYADSVKGRFTISRDNAKNTVYLQMNSLKPEDTAVYYCAAGSAWWYYWGQGTQVTVSS | high polyreactivity
40 | QVQLVESGGGLVQAGGSLRLSCAASGITFSSYAMGWYRQAPGKEMELVAAISYGGGNTYYADSVKGRFTISRDNAKNTVYLQMNSLKPEDTSVYYCNTLYTSYSGLDYWGQGTQVTVSS | high polyreactivity
41 | QVQLVESGGGLVQAGGSLRLSCAASGITFSVNTMGWYRQAPGKERELVAAITSAGGTYYADSVKGRFTISRDNAKNTVYLQMNSQKPEDTAVYYCAAANFRSYLSQTGPRAYYYWGQGTQVTVSS | low polyreactivity
42 | QVQLVESGGGLVQAGGSLRLSCAASGITFSYAMGWYRQAPGKERELVAGITTSGGSTYADSVKGRFTISRDNAKNTVYLQMNSLKPEDTAVYYCAADRSAVQFSAFLEYDYWGQGTQVTVSS | low polyreactivity
43 | QVQLVESGGGLVQAGGSLRLSCAASGITFSYNAMGWSRQAPGKERELVAAIRVGDGSTYYADSVKGRFTISRDNAKNTVYLQMNSLKPEDTAVYYCNARYLRLRYPYTDEYNYWGQGTQVTVSS | low polyreactivity

From the nanobody polyreactivity screen of Harvey et al. (2022)
